Laboratory results taken from a protein production outcome set (Wang et al. 2014).

Assay: label from the status in PepcDB records

Row | Sequence | protein production
1 | MRPAPSIVEVVAAIIIGSDGSFLLARRPEGKPYAGYWEFPGGKVNPEESLLRALKRELLEELGIHVKHAYPWITRTFTYPHARVRLHFYRVVEWHGEPHPHEDQELSWQFADNVSVEPLLPANAPVLRALALPPVYGITNAAEWGPQIAAARIGHALQKGLRLVQLREKGMRSKALDAFAREVTALAHHYGARILVNSGTGNESLCQELDMDGIHFTSADLMNLSKRPDVEWCAASCHNAEELFRAEQLEMDFAVLAPVLPTLSHPDSPVLGWRKLARIIHGSAIPVYALGGLQSEDLAIAWEHGAHGIALMRRIEQVRGTGQKA | failed
2 | MRPKVSVALATYNGEKYIEEQLESIIKQTRAPDELVICDDCSNDETINIITKKIKNAHFDVKLVSNDKNIGYVQNFSKALEMSSGDIVFLCDQDDVWLSDKIEFIINKFNTRPDIQLLIHDVDYCKEDLTPIGQTKLQRMESNFDIESDYVVGMATAVRRSFLVHCLPVPSAPEVTHDEWLHDCARVLGCKGIVREVLALYRRHSLNVTAPSRLNVDFVTTRHYFGNESLAFLKLFRMETDLGSPDISPLVQWLDSRKMVLLDNGFSSEDRINTFIQYEEKRLRARNSRQSILRLDRWKRLFPIYDLYRSGGYHYYCGWKSALKDLLRTYALEHHHHHH | not failed
3 | MRPLAAILALPILEIALFVTIGGAIGLLATLLIIFGTAALGVFLLRRQGVEMQAALQMPRRMDPLALMADGAAVSLAAALLILPGFFTDTVGLLLLIPPVRRALIRRLGRNVQVRSTTWRGPVRDDAPIEADYHEVEPVRDPLAPPSQPPGSSGWTRH | failed
4 | MRPPLIERYRNLLPVSEKTPVISLLEGSTPLIPLKGPEEARKKGIRLYAKYEGLNPTGSFKDRGMTLAVSKAVEGGAQAVACASTGNTAASAAAYAARAGILAIVVLPAGYVALGKVAQSLVHGARIVQVEGNFDDALRLTQKLTEAFPVALVNSVNPHRLEGQKTLAFEVVDELGDAPHYHALPVGNAGNITAHWMGYKAYHALGKAKRLPRMLGFQAAGAAPLVLGRPVERPETLATAIRIGNPASWQGAVRAKEESGGVIEAVTDEEILFAYRYLAREEGIFCEPASAAAMAGVFKLLREGRLEPESTVVLTLTGHGLKDPATAERVAELPPPVPARLEAVAAAAGLL | not failed
5 | MRPSAEALRDRPRCGIRPSMDYYDLGRHGRPVTTSSPEAQRWFDRGLVWTYAFHHEEAVACFEAAVAADPDCAMAHWGIAHALGPNYNKPWDAFDTEELTRTVDRTHAAVERAHALAGRATPAERALIDALRARYPQASAVEDCSVWNAPYADGMRAVYELAPDDLDVAALYADALMNLTPWQLWDLRTGLPAEGARTLAAKEVLDRALAAEGGRDHPGVVHLYIHLMEMSPTPEAALAVADRLRGLVPDAGHLLHMPSHLEVLCGDYRRVVSDNEAAIAADEKCLARSGAMNFYTLYRAHNHHFKIYGAMFLGRYEVALDAAARLEASVPEALLRVESPPMADWLEAFLAMRVHVLIRFGRWTDILALPLPDDPRLYCVTTAMLHYARGVALSATGRVAEAETERDLFRAAVDRVPGSRTLFNNTCADILAIASAMLDGELEYRRGNHTAAFAALERSVELDDNLPYDEPWGWMQPTRHAYGALLLEQGRTAEAEAVYRADLGLDDTLPRPLQHPNNVWALHGLHECLVRLGRAGEVRIVAQQLRFAAALADVPVEASCFCRLGTAPAAGGDAGCCATGQ | failed
6 | MRPSAIVLAGGKEAWAERFGVGSKALVPYRGRPMVEWVLEALYAAGLSPVYVGENPGLVPAPALTLPDRGGLLENLEQALEHVEGRVLVATGDIPHLTEEAVRFVLDKAPEAALVYPIVPKEAVEARFPRTKRTYARLREGTFTGGNLLLLDKSLFRKALPLARRVVALRKRPLALARLVGWDVLLKLLLGRLSLAEVEARAQRILGVEARALVTPYPEVGVDVDREEDLVS | not failed
7 | MRPTARNLAPLLAVLCAPPALLAGCGHAEPRPRAAAQDRDGLSALWSYYRYTHVQGGRVAALDEGGVTTSEGQGYAMLRAVWMDDRATLDAVWRWTRENLAVREDRLLAWRWLDGKVKDRNAATDADQDVALALVLASRRFGDPRYLEAARPLLADIWAREVIRAGGRWLPTGGNWAPAERYPTLHVAYLAPYAYQVFADVDPERPWAELVESSYQVLRFLMIEKGLALPPERIWVDPRTGELLLARPGGQPDAFGYDAVPVYWRVALDARWFGRRGEAELRARLLRFPAEAFRDEGRLRERYTTSGRPLSELDGLPHLASVQALAQLEDPELARAMRASKLDALFDRALSGEATPYYLHNWLWFGRALEAGLLRRFDEPLAFLSSLDWGAFRDRFPLLPVALAVVLAPLARRLWPARAALVALALGLSIRYLAWRAGSTLNFVEPLGPALSLALLAAEAYALSTVALLVVQVGLRHRARPPEPPLGAGEPHPSVDVMVPIYSEPLDILDKTLAACAALRYPRKTIVVCDDSHREEVARLAAEHGARYLAGPRRHAKAGNLNAALARTDGELVVVFDTDHVPTAAFLERTVPCFRDPRLGVVQTPHHFYNPDVFQRALGAPASVPNEADLFNHAIQGGRDRWGGAFFVGSGAVFRREALASVGGFHLLSITEDIHTSQKLHAGGWRTRFVDEDLAAGLSAEDLASYVVQRRRWMLGCLQIFFRDNPLLQRGLPLRHRLGYLASLWYFFFPLARLVFFATPLAYLLFHLHPLFAELPVLLAYLVPHLVAAPLAASALVPGWPRLLWGGLYEGAVAFPLARATLDLLLPRRLGFKVTPKGVRSERRRFDLRTSAFTLAAAAVGLLAIAKGAAELWAFGIEVEAYAFNLAWAGANLVSVLLALLVAWERPQRREDERIRRRVPVRLEAPGLSLEASTLDLARGGAAVALPPGAALPAEVEVTFDGPEGLRLRARVAYVEPVDGAPRAGLAFQGVGAAEARALVRIAFSADGAHAGAHDGRSRWQAAMAWHLLAGLWRAVRPLRPRRRLGARRRTLRPLRLCGAGRACRALAVDASAGGLGLVAAGARGAIPAPGTALALLAPEGIGWARVVHARRILPGLWRLGLALQAEPVPGAEPHAYLAA | failed
8 | MRPVLLLCCLFLSATAQAEDCSPQTSVGSWCELPLAALHPTQQNVGLLQVEDDQAKLAGKKPKALERYLRKKEIPVVIGPGGRFYLTDRHHLSSALWRLDPKQGVPVKVIGRLPQASDFWEKMQENHWVWLHDARGAEIPPEALPDALAGLGDDPYRALAGYAEDENAFDKDRQSYFIEFHWARYFGERMHWRPISRATLPDDLKQALRLACEPAARELPGYRQDCPHLEHHHHHH | failed
9 | MRQATMDFSSSSVFDQHKGDSSEEVDLTMVYQAASNGDVNSLTAVIREDPSILECCDSEGCTPLMHAVSGRQVDTVKLLLKMGANINTQDAYGRTSLCLATYLGWLEGCVSLLRNGAKHNIPDKNGRLPLHAATAEPDVRLLIVLLQQSSLSEINHQDTEGMTPLHWAAFHNRPQHTQMLLKKGADPTLVDKDFKTALHWAVQYGRSRVACQDVLGHAQGPGRASQETTISVSCQHALLGISNIYNKAGRITEASSQQLTSDFRTPLHWAAAAGKAECVQSLLDLGMDSNLRDINESTPLAYALYCGHTACVRLLSREGRAEPARPLPSQNSQPQKKEGRFSVLNQIFCKNKKEEQKAHQKEQSRARPKEEDTSEVNDIIATFDSVVDTNCQDQPGDQVDMVVFKKRTSENSKYLLPEKKSLARKGLPPIRTQSLPPITLGSNFLTASHGATSHAGLNSGLQHTAQRSQKSRSEQDLLNNRTGCQVSLDNPWKGDTRQAFSCKAWTVSSSDKLLDRMFTGQPGHQELSGPPHLPHLPNPSPGQGLQHLSPNRPKVRDFPFTRNSLAPLPDQKFLSGEPLRTNRVLPAIPSQRGHDPPAEESEWSSSPTHDEN | failed
10 | MRQFKTESKKLLDLMINSIYTNKEIFLRELISNASDAVDKLNFKSLQDPSVKIDQGDLAIRVSFDKDARTITISDNGIGMTAEELERNLGTIAHSGSEEFKTENAEQQGSDVDIIGQFGVGFYSAFMVASHVKVVSRAYGEDVAHVWESDGLEGYTIEDGERAEHGTDVILTLRENEKLDADGEAETYDRFLTEWGLKSLIQQYSNYVRYPIQMMVSKSRQKPKPEDAGDDYKPEYEDYQELETVNSMTPIWKKRSSDVEQKDYDEFYKSTFHDFDDPARTISFHAEGTLEYDALLFVPGRAPFDLYSKDYEKGLSLYSSNVLIMEKCDDLLPDYYNFVRGVVDSADVSLNISRETLQQNRQLKAIAKRVEKKITADLEDMRDNDREAYEKFFENFGRGLKYGIYSSYGMKADELADLLLFWSAKEQKMITLAEYAKGMPEDQKAIYYAAGDSRERLAKMPVVKGVLDRGYDVLLLTQDVDEFTFQAMREYVAADMPKIYEDDAAREAAEKAVADGAEPEVEDRHLELKNVATGDLDLATEDEKKEAEDATKENEDLFSAMKEALGDKVEKVAVSARLTDAPACITTEGPLSLEMEKVLQKGPEGAPDGMPKSQRVLELNAKHPVFDKLVAAQKAGDADKIKQYSGLLYDQALLVEGILPEDPVAFAAAVCNLM | failed
11 | MRQGEPGSPFSYLPVYQGPAVMSLRIFYHPLYSALTLPARHRFPLAKYQALFERLGSLGYPLAEAAPATPEQIKRVHDAAYVEAALAGTLDADAIRQLGFPWSPLLMERTLRSVGATLAASRHALEQGCGLQISGGYHHAHRDVGSGFCLFNDLVIAAQVCLDEGRCEQVLIVDLDVHQGDGSAALCQGRRDIITLSLHGEHNFPRYKPASHMDFPLPSGMADDAYLTTLAEALNLALRLYAPDLILYQAGVDVHKDDELGYLALSDEGIRQRDAMVFDCALRHGLPIAAVPGGGYRRDWQQLIPLHMSLFEEAKKRYG | failed
12 | MRQHLSLFPFILFLLLAFSYVGCRTVRQTPKQSERYVVVLSLDGFRPDYTDRARTPALDRMAQEGLSGSLQPCFPSLTFPNHYSMATGLYPDHHGIVANEFVDSLLGIFRISDRKAVETPGFWGGEPVWNTAARQGIRTGVYFWVGSETAVNGNRPWRWKKFSSTVPFRDRADSVIAWLGLPEKERPRLLMWYIEEPDMIGHSQTPESPLTLAMVERLDSVVGYFRKRLDSLPIAAQTDFIIVSDHGMATYENEKCVNLSHYLPADSFLYMATGAFTHLYPKPSYTERAYEILRAIPHISVYRKGEVPKRLRCGTNPRLGELVVIPDIGSTVFFAINEDVRPGAAHGYDNQAPEMRALLRAVGPDFRPGSRVENLPNITIYPLICRLLGIEPAPNDADETLLNGLIRDKRP | failed
13 | MRQHWRMRHLALACFLLAPGAALASDCPTAPDHSERIAHLIEDIRAAPNEMQARTISNRMWEIWADAPDEAAQAILDNGMSRRRAWDLLGALSEFDRLVAYCPDYAEGYNQRAFANFLRQDFAAALIDLDRALALSPNHVAAMSGRALTLMGLGRIDEARSVLNQALELNPWLPERGLVAPGGPLEPKGKDI | failed
14 | MRQKETTATTRFSLLPGSITRFFLLLIIVLLVTMGVMVQSAVNAWLKDKSYQIVDITHAIQKRVDTWRYVTWQIYDNIAATTSPSSGEGLQETRLKQDVYYLEKPRRKTEALIFGSHDNSTLEMTQRMSTYLDTLWGAENVPWSMYYLNGQDNSLVLISTLPLKDLTSGFKESTVSDIVDSRRAEMLQQANALDERESFSNMRRLAWQNGHYFTLRTTFNQPGHLATVVAFDLPINDLIPPGMPLDSFRLEPDATATGNNENEKEGTDSVSIHFNSTKIEISSALNSTDMRLVWQVPYGTLLLDTLQNILLPLLLNIGLLALALFGYTTFRHFSSRSTESVPSTAVNNELRILRAINEEIVSLLPLGLLVHDQESNRTVISNKIADHLLPHLNLQNITTMAEQHQGIIQATINNELYEIRMFRSQVAPRTQIFIIRDQDREVLVNKKLKQAQRLYEKNQQGRMTFMKNIGDALKEPAQSLAESAAKLNAPEGKQLANQADVLVRLVDEIQLANMLADDSWKSETELFSVQDLIDEVVPSVLPAIKRKGLQLLINNHLKAHDMRRGDRDALRRILLLLMQYAVTSTQLGKITLEVDQDESSEDRLTFRILDTGEGVSIHEMDNLHFPFINQTQNDRYGKADPLAFWLSDQLARKLGGHLNIKTRDGLGTRYSVHIKMLAADPEVEEEEERLLDDVCVMVDVTSAEIRNIVTRQLENWGATCITPDERLISQDYDIFLTDNPSNLTASGLLLSDDESGVREIGPGQLCVNFNMSNAMQEAVLQLIEVQLAQEEVTESPLGGDENAQLHASGYYALFVDTVPDDVKRLYTEAATSDFAALAQTAHRLKGVFAMLNLVPGKQLCETLEHLIREKDVPGIEKYISDIDSYVKSLL | failed
